Source: the DeepSol protein solubility set

Experiment: soluble on expression in E. coli; label from the status in PepcDB or PDB records

Sequence | soluble on expression in E. coli
MSLAQIVTSTKSCTVNPLRMSQPLGAALAFMGLRNCMPLLHGSQGCTSFGLVLFVRHFRESIPLQTTAMSEVATVLGGFENVEQAIVNIVGRTKPDVIGICTTGVTEIKGDDLDGYIKMVRANHPELANVALVPVSTPDFKGAFEDGFAATVTRIVETLVETPAEGAAPDADRINVLAGSHLTPGDIDELRDIIEAFGLVPTFLPDISGSLDGHVPDDFTPTTHGGVSVAEVVAMGGAGHTLAFGEHMRKAAAALEAKAGVPFTLLSRVTGLAAADELMATLAKISGRPVPPKYRRQRSQLVDAMLDGHFYFGGKSVAIGAEPDMLLNIGGWLADMGCTVSAAVTTTTSPSLAQVPSDEVLIGDLEDLERRAEDCDLLVTHSHGRQAAERLSVPLFRMGLPMFDRLGAVHQVAVGYRGTRDLIFAIGNLFIANIKEPDVNSWRSASACPDQTDAEGHHHHHH | soluble
MGSDKIHHHHHHMHSHHPISHDVVISGAGPVGLFLACELRLAGLSVLILEKAEDPRSPLKRLPFGMRGLSAPTIEAFHRRDLLDAIAPPTTKDGSGKLVAAHWMQQPRRPGGHFAGIQFHLDAVDSSKWPYRLPGPAGTSMAVEMEQLETMLATRATAMGVEIRRGLGVEIFDQSDEDVTIRAGGEIFRARWLVGCDGGRSTVRKLGGFAFTGTDAEFTGYSVEVEIADPDALSPGRHYTPTGMYTYSRPGTIAMVEFDGATFHRTEPITLEHVQAVLRRVSGTDVTLTALRLATTWTDRAYQASAYRNGRVLLAGDAAHIHSPLGGQGLNLGIGDAMNLGWKLAATIRGDAPAGLLDSYFDERHPVGAQILDWSRAQVALMRPSRSSRALEAIIRDLIDTRDGATYFAERVWGVSLRYDVGGSHPLVGRSAPDFELADGTRPGERLRTGQALLLDFAARPALQALASRWSGRIAYVAEDARERLGLSALLVRPDGVVAWAADGEPDLEGAAQAASRWFGEPGQVAAYAKGTV | not soluble
MDAIILQENIEGLLSLVRMLLPDGGSAGCVYLDDLSALQRSIHEKINDLYSQRGETPEQDATLCLAILQGYNVSMYANPEDEERKQAVLTRSLSLLDVLPPSLLKQQLSAVCYGMQELCEIN | not soluble
MELRELFEVQGELDAHIEKIHPRKEGEKRLEEKILALQTELGEIANEWRQFKFWSNDREPRTERLLEEYVDGFHFVLSIGLEESKRYGQSVPIRLGLPDELTSICYETTIQQFNYLFSEIGRLYDSVTLHEVAADTEVEEAYENIIRMFIGLGEKLGFTEKEIAEGYMRKNMINHERQKNGY | not soluble
MGSDKIHHHHHHVNDGSNDFELLGSPWICENPHANWTAPAAHGMFKRFKKKEIIIHSGDQIDYIYYLHKGRIKTVAQSPSGSQKILWYIEAGSIFGETPFFNRKPCDYNFFAVTDCEIYIYPMEVIMQEIIPKFPDLTLSIIKTLSRKVHILSTQVEDCVFNKPLVRVAKLIYLLHQGRILEDKRGSSSIPLTQEDIANTLGMHRVTVNQALKHLKEIQALKEHTHLIIIHDPEKLKEVMEA | not soluble
MNLVGIVGTNSERSTNRKLLRFMAEHFAPQAAIEVLEIKDLPAFDEPENKTAPAAVTAFSKKIAAADGVIIATPEYNHTIPAPLGSALEWIAYTSRVLVNKPVMIVGCSLGALGTSRAQAHLRQILDAPELKARVMPGTEFFLGHSEHVLDDDFNLNNPEKVAELEEHFTEFQDFVIVTNQIVKQADTDRKKAFVWEAGELEHHHHHH | soluble
MGHHHHHHSHDGSLVHISISPYPAILHEYVSSSKWEDAVRLCRFVKEQTMWACLAAMAVANRDMTTAEIAYAAIGEIDKVQYINSIKNLPSKESKMAHILLFSGNIQEAEIVLLQAGLVYQAIQININLYNWERALELAVKYKTHVDTVLAYRQKFLETFGKQETNKRYLHYAEGLQIDWEKIKAKIEMEITKEREQSSSSQSSKSIGLKP | not soluble
MSLTERPRDCRPVVRRARTSDVPAIKQLVDTYAGKILLEKNLVTLYEAVQEFWVAEHPDLYGKVVGCGALHVLWSDLGEIRTVAVDPAMTGHGIGHAIVDRLLQVARDLQLQRVFVLTFETEFFARHGFTEIEGTPVTAEVFDEMCRSYDIGVAEFLDLSYVKPNILGNSRMLLVLEGHHHHHH | soluble
MEYFNVGKIVNTQGLQGEMRVLSVTDFVEERFKKGQVLALFDEKNQFVMDIEIASHRKQKNFDIIKFKGMYHINDIEKYKGFTLKVAEDQLSDLKDGEFYYHEIIGLDVYEGEELIGKIKEILQPGANDVWVVERHGKRDLLLPYIPPVVLEVDLSNQRVQVELMEGLDDEDLEHHHHHH | soluble
MKVVLATGNPGKVRELKEGLAPLGWTLLTLADFALRMPKEEGATFLENALLKAAYVAKATGLPALADDSGLEVYALGGEPGVYSARYGGRATDRERNVYLLERMRHLKGEERKARFVAVLVLAYPDGHAEAYEGSVEGVILEAPRGEGGFGYDPLFYVPEAGKTFAEMGLEEKARYSHRGKALRALLEAYKDGPPPREVSKLE | soluble
MELPRAFGLLLHPTSLPGPYGVGVLGREARDFLRFLKEAGGRYWQVLPLGPTGYGDSPYQSFSAFAGNPYLIDLRPLAERGYVRLEDPGFPQGRVDYGLLYAWKWPALKEAFRGFKEKASPEEREAFAAFREREAWWLEDYALFMALKGAHGGLPWNRWPLPLRKREEKALREAKSALAEEVAFHAFTQWLFFRQWGALKAEAEALGIRIIGDMPIFVAEDSAEVWAHPEWFHLDEEGRPTVVAGVPPDYFSETGQRWGNPLYRWDVLEREGFSFWIRRLEKALELFHLVRIDHFRGFEAYWEIPASCPTAVEGRWVKAPGEKLFQKIQEVFGEVPVLAEDLGVITPEVEALRDRFGLPGMKVLQFAFDDGMENPFLPHNYPAHGRVVVYTGTHDNDTTLGWYRTATPHEKAFMARYLADWGITFREEEEVPWALMHLGMKSVARLAVYPVQDVLALGSEARMNYPGRPSGNWAWRLLPGELSPEHGARLRAMAEATERL | soluble
MRFYNREKELARLMEIATLSEESAHLAVITGRRRVGKTELIRKFAEGRDDFLYFFVSKKKPRVLLDEFRDLLAARVPLLASASFGSFDDFFRALFEITKERPLFIVFDEFQNFQQVDPAVFSTLQDLWDRNKGTIKGTIVCIGSVQTLMREIFEGAKEPLFGRVTARLYVEPLIPDVVATILADHQVDAVRHLPFFFTLFGGIPKYYFLLDRYRLFGKTPAEIIRKFFCETDALLQNEGKDLLVEEFGKNYHLYFSILQVIAGGENQMARIADKSGINVNSISKYLDELTSYYQVIERRLPVTATRQEQKTGRYYLKDPLLRFWFRYIYRNQSLIEIGDEEGLLGKIQADLSTFMGWSFEELIRAMLLKRNDGTVVPFGFTRIGGFWTKRGDVEIDIVALNEEDGAIFFGECKLSGSRFSVADARRLKEKAKAVPWRTGDRREHFVLFCMDDLESDAEQALAAEGVGVVRLRQLLSVPLEHHHHHH | not soluble
MGSDKIHHHHHHMNNSASEQKWKWWPLLPLYPYGRRRTIFRELVPNQIWSFEQLQGIYYVAVPVRLLVIRVKNELMIINPLPPTSELLKEIDLLQKKIGPVKTIVLPTASGLEHKIGLPALARAFPNAKIWLCPGQWSFPFQLPFDWLGIPSNRTNILLADGFPHGDDCEWISLGPIDIGLARFQEISCFHKPTKSLLVTDALVGIEATPPELFNLDPTPLLFHSREKGSEELIDSPIARRKGWLRLVLFASYLKPEKLEIPKIKEILENSFKPKMRNKRSHFGIYPFAWQEGWDLSAKKLVGEKTPLIQIAPVIERLVFPRGKKAFISWLNKIESLKGISFLISAHYSGKVRFTTNEIRALKVKIDNSNWEKTQGDFKFLSWFDQKLLNFGIVPKNPLKKFSD | not soluble
MSFASGCTPVSFDKLFEVSSGDKVSRENWGMIARPEPQHDSLKRRNTTSSIAKKKAKMTRGDEQITDETARKAATQLLDQIQDTPGRISLNFETPEAASVCPIPTSLNQIVNTKWTVNQLQEGQLTMLLAQDANKFKSLGVKNIKKGSVETQILPRQMDVKEIVEKLKKQDNDSDQFVGYAAAVANVLRRCDAETAQKITQAITATIEKEAPSIVNC | not soluble
TDGQLTKQHVRALAISALAPKPHETLWDIGGGSGSIAIEWLRSTPQTTAVCFEISEERRERILSNAINLGVSDRIAVQQGAPRAFDDVPDNPDVIFIGGGLTAPGVFAAAWKRLPVGGRLVANAVTVESEQMLWALRKQFGGTISSFAISHEHTVGSFITMKPALPVHQWTVVKALTKEL | soluble
MAHHHHHHMLRRLGAGTNGQVRRSASSVSYGYLNLTVSDKIMPYVEGLKKKVIYVSSSKDCKAYVQEIQKGVQAGKINCIGLDVEGYKIGRNGTVSIIQVCTQDVYLFDLYKCDNSYLFVKCLKELLEDRRVIKITHDCREDCSILFNQYSICLNRTFDTQVAFNLLLKETKKDLYQISYDDLLYKCLLLNNKHKIYFHKMISLDQKIYLKRPIAKELIQYAIQDVIYLKPLMWSLVDRLLRVCKDGEAGREPFGEDGEARSNPFGEDGEARSNPFGEENPRSIKNGDDVMSEGAHSNLSEHKTNIIKRVTRLSERYINYQFLNTHVKNEKELQKGMTLDGMVVSCNNLNLYVKLNLSRRGVITNCMRNDFEIGDVVKCVILGFCNNDYIKLGLCDPSLCAVKREEGR | not soluble
MGHHHHHHSHMGLYHVGQAGLELLTSSDPPTSASQNAEITGVSHRAQSKAHNLQRKLRLSHKSSPPCTYTQHAGGVDSHPLTQDMCVIVNVIARPFDKCNCDIYLGLASELFVVSWVQLTVPYHWIQTLGNVILFCLDTAHRGHCDIAGHCT | not soluble
MGSDKIHHHHHHMDIQKIAKFFEQLQNQDFAQWEDCFGKYDVEFSDDTAETFSQSCDHVVLFNNRLSKVMLLKTSDSILSIGGFQAHNRGKIEAKNRKKTLITIPTQLANDSFGTNRYSLQDNERKPSMGGIYPCKTIFDFSILLSNEIEKSLWGIGEYVGVYFSIIDYSSKYQENFEELIAWTVEQIDELSSLLKREDNRTILRRIASLLTVKCLIMRSNGNHEIGCSIDHSFARYLENKIQIPHGKAVYLGSLLTLLFYPEWEDKGLSLEKLFKIGHYVGITMSDIQYLKTQDFSTLVKEASLLRPKRSFSLDQIQEGEAMRIKKAKERANMITQIWDR | not soluble
GMALQEEFIDVNGTRVFQRKMVTDSNRRSIALFHGYSFTSMDWDKADLFNNYSKIGYNVYAPDYPGFGRSASSEKYGIDRGDLKHAAEFIRDYLKANGVARSVIMGASMGGGMVIMTTLQYPDIVDGIIAVAPAWVESLKGDMKKIRQKTLLVWGSKDHVVPIALSKEYASIISGSRLEIVEGSGHPVYIEKPEEFVRITVDFLRNL | soluble
MSLLRLHDGDLLFVTAARTGLSGAIDDATATQGAPSFDHVGLVAHDGRARVVLHADEEGSRQQPLADFIRQARAKQRQIFVYRLNAAQRAAIPDAIAQARRMLGKPYNLTYVQDDNSYYCSDFIERAFRAHQVFALQPMNFKNPQSGQMSAYWTEFYRSKGMDVPQGLPGTNPNDMARAPALQALGPLDEGHHHHHH | soluble
GPGSMDGFRLYMEGISLPEGSMRRANAELIGAINSPDPMVQHSGLQMLCDQLTMSSFISPSTMTTIPLVLPSLLRCIASSQVREVFITAARALTYIIDAFPRTFETFPTRDTLIEVLLQHLRSIQDVELSEQCITCLEMITRSQTGSRELLHNNGVEAVLGFADFFTLHKQRQIWTIVQRLVGEVDESSVQHITACLPTLRIGMTNGDSEIRQKAIATLAQAIEGVKTDRAIVETVFGDAADRIAVLLHERDVNDDTLSSALSLLYAGVQWSAGIAASVIQSDLLNTLLSLLQSTPVPAVVAEQHTAPSAGAGRVARRSAAAELVVGRDSTTDSGGGAGTEPAAARTTMLTSHQRTIVCRLLASLLIPCRTGAAEQLERLEMLTQRPLLTGARAHGKPVGHGRRR | not soluble
